Our source for the Kd values is US20180016581.

Where two headings read alike, the source gives them in different places.

Data set [1] addresses T1, GDF11, mature (Homo sapiens) (UniProt O95390).
T1 sequence: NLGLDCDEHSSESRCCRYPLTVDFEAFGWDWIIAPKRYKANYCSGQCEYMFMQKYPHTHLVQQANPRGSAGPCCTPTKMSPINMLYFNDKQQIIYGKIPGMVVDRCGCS
To be noted: TrpdU at each W (n in listing).

In data set [2] the target is GDF8 (myostatin), mature (Homo sapiens) (UniProt O14793). As to conditions: TrpdU at each W (n in listing).
GDF8 (myostatin), mature (Homo sapiens), sequence (O14793 267-375): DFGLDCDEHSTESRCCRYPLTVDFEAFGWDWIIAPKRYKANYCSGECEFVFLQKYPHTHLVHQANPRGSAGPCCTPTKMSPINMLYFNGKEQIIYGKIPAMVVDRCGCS

For “CTCTGAACTTCTAATGTCTCTTGCATTTTATCGCATTGATTTCTCCAACA [14583-19_3]”, the values for the Kd in data set [1] (with Z-block) and in data set [2] (with Z-block) were 0.42 nM and 1.16 nM, respectively.

In the case of “CTCTGATACGGCCTTAGTGTTAGAGTCCTTTATGAGTCTAGACCACAACA [14583-49_3]”, the dissociation constant (Kd) – broadly, the constant that tells how readily two partners part at equilibrium – in data set [1] (0.1 uM Z-block, low binding plateau) came to 1.11 nM; in data set [2] (0.1 uM Z-block, 1.32E-10 M in p223), 0.13 nM.

Take TGTTAGAGTCCTTTATGAGTCTAG [14583-49_29]: the Kd in data set [2] (with Z-block) came out at 0.228 nM.
